The values below come from the supplement of paper PMC9112550, “Optimization of the antimicrobial peptide Bac7 by deep mutational scanning” (BMC Biology, 2022).
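Note: peptides expressed intracellularly from a pBAD plasmid library in pooled LB shake-flask culture, induced with 0.3% L-arabinose, DNA abundance read by NGS, three biological replicates, DESeq2 with apeglm shrinkage.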

This data set relates to Escherichia coli TOP10. In words: shrunken log2 fold change of peptide-encoding DNA abundance (4.5 h post-induction vs induction); higher = less antimicrobial activity (less host growth inhibition). The note with it: time post-induction: 4.5 h; library: site-saturation at positions 5, 18, 19, 20.
In the case of RRIRARPPRLPRPRPRPNQNPRP, the “shrunken log2 fold change” value was determined as 0.0844.

Take RRIRMRPPRLPRPRPRPDLPPRP: the “shrunken log2 fold change” value was -0.0325.

Turning to RRIRDRPPRLPRPRPRPYAAPRP, the “shrunken log2 fold change” value is -0.2.

With RRIRKRPPRLPRPRPRPHKQPRP, the “shrunken log2 fold change” value turned out to be 0.164.

With RRIRDRPPRLPRPRPRPAWSPRP, the “shrunken log2 fold change” value was 0.168.

As for RRIRTRPPRLPRPRPRPTGVPRP, the “shrunken log2 fold change” value turned out to be 0.077.

RRIRTRPPRLPRPRPRPAVPPRP: the “shrunken log2 fold change” value came to 0.0514.

As for RRIRGRPPRLPRPRPRPGFFPRP, the “shrunken log2 fold change” value was found to be 0.542.

In the case of RRIRERPPRLPRPRPRPKEVPRP, the “shrunken log2 fold change” value was -0.324.

Consider RRIRTRPPRLPRPRPRPPQHPRP, for which the “shrunken log2 fold change” value came out at 0.22.

Consider RRIRVRPPRLPRPRPRPQLSPRP, for which the “shrunken log2 fold change” value was determined as 0.132.

As to RRIRPRPPRLPRPRPRPNEGPRP, the “shrunken log2 fold change” value came to 0.0293.

Take RRIRQRPPRLPRPRPRPFEKPRP: the “shrunken log2 fold change” value was -0.0519.

With RRIRPRPPRLPRPRPRPVDYPRP, the “shrunken log2 fold change” value worked out at 0.0307.

Consider RRIRNRPPRLPRPRPRPEQYPRP, for which the “shrunken log2 fold change” value is -0.153.

For RRIRCRPPRLPRPRPRPDPYPRP, the “shrunken log2 fold change” value is -0.197.

In the case of RRIRQRPPRLPRPRPRPGMFPRP, the “shrunken log2 fold change” value was 0.00926.

Regarding RRIRYRPPRLPRPRPRPQDMPRP, the “shrunken log2 fold change” value was found to be 0.000181.

For RRIRTRPPRLPRPRPRPLLTPRP, the “shrunken log2 fold change” value is -0.0897.

On to RRIRPRPPRLPRPRPRPPGWPRP, for which the “shrunken log2 fold change” value turned out to be 0.484.

In the case of RRIRVRPPRLPRPRPRPTTQPRP, the “shrunken log2 fold change” value turned out to be 0.0531.

With RRIRFRPPRLPRPRPRPDILPRP, the “shrunken log2 fold change” value is -0.119.

Take RRIRWRPPRLPRPRPRPQDDPRP: the “shrunken log2 fold change” value worked out at 0.0379.

Consider RRIRQRPPRLPRPRPRPMCAPRP, for which the “shrunken log2 fold change” value came out at 0.195.

On to RRIRIRPPRLPRPRPRPTSFPRP, for which the “shrunken log2 fold change” value is -0.11.

Regarding RRIRSRPPRLPRPRPRPGQSPRP, the “shrunken log2 fold change” value was 0.153.

Turning to RRIRFRPPRLPRPRPRPAGKPRP, the “shrunken log2 fold change” value was found to be 0.279.

In the case of RRIRLRPPRLPRPRPRPRAWPRP, the “shrunken log2 fold change” value is 0.41.

For RRIRKRPPRLPRPRPRPRKHPRP, the “shrunken log2 fold change” value turned out to be 0.328.

With RRIRCRPPRLPRPRPRPRNTPRP, the “shrunken log2 fold change” value turned out to be 0.855.

With RRIRDRPPRLPRPRPRPKFTPRP, the “shrunken log2 fold change” value is -0.0602.

In the case of RRIRVRPPRLPRPRPRPGAWPRP, the “shrunken log2 fold change” value amounted to 0.323.

Turning to RRIRQRPPRLPRPRPRPSEQPRP, the “shrunken log2 fold change” value amounted to 0.155.

As to RRIRIRPPRLPRPRPRPTWEPRP, the “shrunken log2 fold change” value was -0.212.

On to RRIRRRPPRLPRPRPRPETNPRP, for which the “shrunken log2 fold change” value turned out to be 0.596.

RRIRNRPPRLPRPRPRPLHVPRP: the “shrunken log2 fold change” value worked out at 0.251.

As to RRIRHRPPRLPRPRPRPQMLPRP, the “shrunken log2 fold change” value is -0.0829.

Take RRIRHRPPRLPRPRPRPGGAPRP: the “shrunken log2 fold change” value is 0.311.

On to RRIRHRPPRLPRPRPRPWFVPRP, for which the “shrunken log2 fold change” value is -0.14.

With RRIRERPPRLPRPRPRPLSSPRP, the “shrunken log2 fold change” value amounted to 0.00508.

Consider RRIRQRPPRLPRPRPRPKRFPRP, for which the “shrunken log2 fold change” value was -0.0339.

With RRIRIRPPRLPRPRPRPRHPPRP, the “shrunken log2 fold change” value was -0.0642.

For RRIRVRPPRLPRPRPRPDHHPRP, the “shrunken log2 fold change” value was -0.392.

Regarding RRIRNRPPRLPRPRPRPKYDPRP, the “shrunken log2 fold change” value is -0.624.

For the sequence RRIRHRPPRLPRPRPRPLFLPRP, the “shrunken log2 fold change” value is -0.612.

Consider RRIRQRPPRLPRPRPRPAWLPRP, for which the “shrunken log2 fold change” value was -0.123.

For RRIRVRPPRLPRPRPRPGERPRP, the “shrunken log2 fold change” value is 0.674.

In the case of RRIRSRPPRLPRPRPRPEHLPRP, the “shrunken log2 fold change” value was -0.258.

On to RRIRRRPPRLPRPRPRPWNTPRP, for which the “shrunken log2 fold change” value is -0.214.

In the case of RRIRMRPPRLPRPRPRPLQFPRP, the “shrunken log2 fold change” value was determined as 0.388.

Consider RRIRPRPPRLPRPRPRPWGAPRP, for which the “shrunken log2 fold change” value is 0.738.

In the case of RRIRHRPPRLPRPRPRPGWVPRP, the “shrunken log2 fold change” value came to 0.0965.

With RRIRERPPRLPRPRPRPEPKPRP, the “shrunken log2 fold change” value is 0.0877.

Regarding RRIRNRPPRLPRPRPRPGKKPRP, the “shrunken log2 fold change” value is -0.00783.

As for RRIRKRPPRLPRPRPRPLVNPRP, the “shrunken log2 fold change” value was -0.0445.

Take RRIRERPPRLPRPRPRPKYYPRP: the “shrunken log2 fold change” value is -0.183.

As for RRIRVRPPRLPRPRPRPEDHPRP, the “shrunken log2 fold change” value was -0.021.

RRIRPRPPRLPRPRPRPRTPPRP: the “shrunken log2 fold change” value was 0.536.

For RRIRYRPPRLPRPRPRPDSTPRP, the “shrunken log2 fold change” value was -0.112.

Take RRIRQRPPRLPRPRPRPIRVPRP: the “shrunken log2 fold change” value was -0.00674.

Consider RRIRFRPPRLPRPRPRPYFSPRP, for which the “shrunken log2 fold change” value is -0.245.

On to RRIRERPPRLPRPRPRPIKWPRP, for which the “shrunken log2 fold change” value is -0.0383.

For the sequence RRIRSRPPRLPRPRPRPHIWPRP, the “shrunken log2 fold change” value is -0.442.

Regarding RRIRVRPPRLPRPRPRPQYWPRP, the “shrunken log2 fold change” value was -0.265.

Take RRIRKRPPRLPRPRPRPMNTPRP: the “shrunken log2 fold change” value is -0.287.

Regarding RRIRARPPRLPRPRPRPVRAPRP, the “shrunken log2 fold change” value came to 0.924.

RRIRLRPPRLPRPRPRPCNNPRP: the “shrunken log2 fold change” value was -0.0778.

For RRIRDRPPRLPRPRPRPIVFPRP, the “shrunken log2 fold change” value was -0.0706.

On to RRIRPRPPRLPRPRPRPHSFPRP, for which the “shrunken log2 fold change” value is -0.0599.

Consider RRIRMRPPRLPRPRPRPKVIPRP, for which the “shrunken log2 fold change” value was -0.259.

As for RRIRWRPPRLPRPRPRPNDSPRP, the “shrunken log2 fold change” value was -0.134.

For the sequence RRIRARPPRLPRPRPRPYATPRP, the “shrunken log2 fold change” value is 0.0217.

For RRIRIRPPRLPRPRPRPEANPRP, the “shrunken log2 fold change” value is -0.00444.

In the case of RRIRPRPPRLPRPRPRPCNSPRP, the “shrunken log2 fold change” value was -0.276.

As to RRIRYRPPRLPRPRPRPQNGPRP, the “shrunken log2 fold change” value was -0.152.

As for RRIRARPPRLPRPRPRPPHRPRP, the “shrunken log2 fold change” value was 0.931.

In the case of RRIRMRPPRLPRPRPRPGCGPRP, the “shrunken log2 fold change” value came out at 1.04.

RRIRVRPPRLPRPRPRPLWCPRP: the “shrunken log2 fold change” value is -0.303.

On to RRIRARPPRLPRPRPRPMQPPRP, for which the “shrunken log2 fold change” value amounted to 0.369.

With RRIRMRPPRLPRPRPRPQNEPRP, the “shrunken log2 fold change” value amounted to 0.155.

For RRIRDRPPRLPRPRPRPTHEPRP, the “shrunken log2 fold change” value was 1.09.

Take RRIRRRPPRLPRPRPRPMCCPRP: the “shrunken log2 fold change” value was -0.0111.

Consider RRIRWRPPRLPRPRPRPCAFPRP, for which the “shrunken log2 fold change” value was determined as 0.176.

As to RRIRQRPPRLPRPRPRPRDAPRP, the “shrunken log2 fold change” value amounted to 0.494.

In the case of RRIRERPPRLPRPRPRPCREPRP, the “shrunken log2 fold change” value was -0.129.

With RRIRERPPRLPRPRPRPHLMPRP, the “shrunken log2 fold change” value stood at 1.19.

Turning to RRIRKRPPRLPRPRPRPHWYPRP, the “shrunken log2 fold change” value was 0.0533.

In the case of RRIRDRPPRLPRPRPRPDSVPRP, the “shrunken log2 fold change” value is -0.0148.

Take RRIRIRPPRLPRPRPRPVEYPRP: the “shrunken log2 fold change” value is -0.116.

With RRIRERPPRLPRPRPRPFSFPRP, the “shrunken log2 fold change” value came out at 0.122.

Regarding RRIRYRPPRLPRPRPRPKNIPRP, the “shrunken log2 fold change” value was -0.127.

Regarding RRIRMRPPRLPRPRPRPQFGPRP, the “shrunken log2 fold change” value amounted to 0.104.

Regarding RRIRKRPPRLPRPRPRPVFGPRP, the “shrunken log2 fold change” value is 0.176.

Turning to RRIRPRPPRLPRPRPRPGMGPRP, the “shrunken log2 fold change” value came out at 0.149.

In the case of RRIRSRPPRLPRPRPRPKSDPRP, the “shrunken log2 fold change” value was -0.082.

On to RRIRDRPPRLPRPRPRPIIDPRP, for which the “shrunken log2 fold change” value is -0.02.

As for RRIRPRPPRLPRPRPRPKACPRP, the “shrunken log2 fold change” value is 0.255.

On to RRIRTRPPRLPRPRPRPPDAPRP, for which the “shrunken log2 fold change” value is 0.232.

Regarding RRIRGRPPRLPRPRPRPFVKPRP, the “shrunken log2 fold change” value was -0.419.

As to RRIRPRPPRLPRPRPRPQKVPRP, the “shrunken log2 fold change” value turned out to be 0.0449.

On to RRIRVRPPRLPRPRPRPIIEPRP, for which the “shrunken log2 fold change” value is -0.087.

In the case of RRIRFRPPRLPRPRPRPNDTPRP, the “shrunken log2 fold change” value was -0.179.

On to RRIRYRPPRLPRPRPRPCIPPRP, for which the “shrunken log2 fold change” value was -0.11.

Take RRIRARPPRLPRPRPRPWEVPRP: the “shrunken log2 fold change” value turned out to be 0.205.

Consider RRIRERPPRLPRPRPRPKCWPRP, for which the “shrunken log2 fold change” value came out at 0.23.

In the case of RRIRTRPPRLPRPRPRPPWIPRP, the “shrunken log2 fold change” value amounted to 0.161.

With RRIRLRPPRLPRPRPRPYLPPRP, the “shrunken log2 fold change” value is -0.18.

Regarding RRIRRRPPRLPRPRPRPNETPRP, the “shrunken log2 fold change” value is -0.0619.

As to RRIRVRPPRLPRPRPRPITFPRP, the “shrunken log2 fold change” value was -0.0498.

For RRIRARPPRLPRPRPRPMIMPRP, the “shrunken log2 fold change” value is -0.0807.

For RRIRPRPPRLPRPRPRPNSLPRP, the “shrunken log2 fold change” value is -0.272.

On to RRIRDRPPRLPRPRPRPRAKPRP, for which the “shrunken log2 fold change” value is 0.208.

In the case of RRIRQRPPRLPRPRPRPWYMPRP, the “shrunken log2 fold change” value is -0.237.

In the case of RRIRTRPPRLPRPRPRPFDVPRP, the “shrunken log2 fold change” value is -0.243.

Consider RRIRYRPPRLPRPRPRPLEYPRP, for which the “shrunken log2 fold change” value is -0.443.

Take RRIRQRPPRLPRPRPRPQIKPRP: the “shrunken log2 fold change” value was -0.498.

As to RRIRGRPPRLPRPRPRPWEFPRP, the “shrunken log2 fold change” value was -0.0208.

In the case of RRIRRRPPRLPRPRPRPTCIPRP, the “shrunken log2 fold change” value was -0.123.

Consider RRIRERPPRLPRPRPRPRDTPRP, for which the “shrunken log2 fold change” value was -0.0322.

As to RRIRIRPPRLPRPRPRPRVKPRP, the “shrunken log2 fold change” value was -0.0816.

Consider RRIRHRPPRLPRPRPRPGWDPRP, for which the “shrunken log2 fold change” value is 0.18.

With RRIRVRPPRLPRPRPRPKYLPRP, the “shrunken log2 fold change” value is -0.308.

Take RRIRNRPPRLPRPRPRPMQTPRP: the “shrunken log2 fold change” value was -0.00987.

Regarding RRIRVRPPRLPRPRPRPMASPRP, the “shrunken log2 fold change” value was -0.01.

With RRIRLRPPRLPRPRPRPYAVPRP, the “shrunken log2 fold change” value turned out to be 0.00157.
